According to US20130288275:

B1: PCAF (protein)
chain: GVIEFHVVGNSLNQKPNKKILMWLVGLQNVFSHQLPRMPKEYITRLVFDPKHKTLALIKDGRVIGGICFRMFPSQGFTEIVFCAVTSNEQVKGYGTHLMNHLKEYHIKHDILNFLTYADEYAIGYFKKQGFSKEIKIPKTKYVGYIKDYEGATLMGCELNPRIPYTE
B2: CBP (CREB binding protein) from Biomol (protein)
chain: RKENKFSAKRLQTTRLGNHLEDRVNKFLRRQNHPEAGEVFVRVVASSDKTVEVKPGMKSRFVDSGEMSESFPYRTKALFAFEEIDGVDVCFFGMHVQEYGSDCPPPNTRRVYISYLDSIHFFRPRCLRTAVYHEILIGYLEYVKKLGYVTGHIWACPPSEGDDYIFHCHPPDQKIPKPKRLQEWYKKMLDKAFAERIIHDYKDIFKQATEDRLTSAKELPYFEGDFWPNVLEESIKELEQEEEERKKEESTAASETTEGSQGDSKNAKKKNNKKTNKNKSSISRANKKKPSMPNVSNDLSQKLYATMEKHKEVFFVIHLHAGPVINTLPPIVDPDPLLSCDLMDGRDAFLTLARDKHWEFSSLRRSKWSTLCMLVELHTQGQDRFVYTCNEC

Legend:
[1] = biological target: Purified SUMO-1 (Biomol UW9190), not acetylated
[2] = biological target: Purified SUMO-2 (Biomol UW9200)
[3] = biological target: Purified SUMO-3 (Biomol UW9210)
Chain of Purified SUMO-3 (Biomol UW9210) (P55854 whole entry): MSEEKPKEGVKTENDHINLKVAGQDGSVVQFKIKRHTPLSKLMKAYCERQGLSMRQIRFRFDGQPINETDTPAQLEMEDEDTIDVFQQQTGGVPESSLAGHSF

Protein | in vitro acetylation with 14C-acetyl CoA, autoradiography [1] | in vitro acetylation with 14C-acetyl CoA, autoradiography [2] | in vitro acetylation with 14C-acetyl CoA, autoradiography [3]
B1 | but not by PCAF (not shown) |  | 
B2 | purified SUMO-1 was efficiently acetylated by CBP (lane 3) | SUMO-2 and SUMO-3 were also robustly acetylated by CBP (FIG. 2D, lanes 6-7) | SUMO-2 and SUMO-3 were also robustly acetylated by CBP (FIG. 2D, lanes 6-7)
